The target of experiment [1] is T1, human Trop-2 expressed on cell surface (human, UniProt P09758 27-323).
T1 construct: whole, on cells; also called cell surface Trop-2
T1 sequence (looked up): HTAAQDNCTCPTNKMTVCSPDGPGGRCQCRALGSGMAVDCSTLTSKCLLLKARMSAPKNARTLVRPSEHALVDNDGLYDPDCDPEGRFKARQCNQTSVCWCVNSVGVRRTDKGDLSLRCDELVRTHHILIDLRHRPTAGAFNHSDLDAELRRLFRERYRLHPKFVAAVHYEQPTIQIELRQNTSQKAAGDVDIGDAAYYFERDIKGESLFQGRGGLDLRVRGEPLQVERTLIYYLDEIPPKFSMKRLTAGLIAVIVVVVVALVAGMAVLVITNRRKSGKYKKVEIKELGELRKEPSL
As to the kind of experiment: flow cytometry, MCF-7 cells. Here is the method: (§1) Cells were then resuspended in FACS buffer (1×DPBS/1% FBS) at 10⁶/ml concentration. One hundred microliter (100 μl) of cells were aliquoted into a single well in 96 well plates. The antibodies to be tested were serially diluted at 1:3 fold starting at 15 μg/mL and were then added into each well. The antibodies were mixed with cells and the mixtures were incubated on ice for 1 hour. After washing with FACS buffer, one hundred microliter (100 μl) of 1:400 diluted PE-conjugated anti-human Fc secondary antibody (Jackson Immuno Research) was added into each well and incubated for 30 minutes on ice. After washing with FACS buffer, stained cells were resuspended at diluted 7-ADD (Biolegend, used at 1:100 dilution) and analyzed on Guava 11HT or 5HT (Luminex). Data was analyzed using Flowjo software. EC₅₀ values were calculated using GraphPad Prism. Sacitnzurnab govitecan was used as positive control. Anti-HEL.hIgG1 was used as isotype negative control. Similar assay was performed using MCF-7 cells (known to express human Trop-2).

The target of experiment [2] is T2, cynomolgus Trop-2-His protein (cynomolgus, UniProt P09758 27-274 (human entry)).
T2 construct: also called cynmolgus Trop-His; Kactus Cat #TRP-CM121; not shown: His tag
T2 chain: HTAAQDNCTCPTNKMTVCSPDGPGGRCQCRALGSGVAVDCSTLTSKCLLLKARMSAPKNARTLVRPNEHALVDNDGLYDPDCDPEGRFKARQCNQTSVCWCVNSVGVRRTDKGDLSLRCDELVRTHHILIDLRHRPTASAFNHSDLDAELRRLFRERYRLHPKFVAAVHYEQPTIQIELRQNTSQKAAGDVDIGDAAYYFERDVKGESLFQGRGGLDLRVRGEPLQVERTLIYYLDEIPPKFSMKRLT
As to the kind of experiment: BLI (Gator Prime), LEM supernatant Ab on HFC probe. A digest of the protocol: (§2)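 Antibodies from LEM transfection supernatants were diluted 1:1 in K buffer and captured on HFC probes. Association and dissociation of human or cynomolgus Trop-2-His were then followed by BLI, with blank reference subtraction and affinity from kinetic fitting. Sacituzumab govitecan at 1 μg/ml served as positive control.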

Experiment [3] addresses T3, human Trop-2-His protein (human, UniProt P09758 27-274).
T3 construct: extracellular domain; Assay paragraphs say only 'Trop-2-His'; also called hTrop-2; Kactus Cat #TRP-HM121; not shown: His tag
T3 sequence (looked up): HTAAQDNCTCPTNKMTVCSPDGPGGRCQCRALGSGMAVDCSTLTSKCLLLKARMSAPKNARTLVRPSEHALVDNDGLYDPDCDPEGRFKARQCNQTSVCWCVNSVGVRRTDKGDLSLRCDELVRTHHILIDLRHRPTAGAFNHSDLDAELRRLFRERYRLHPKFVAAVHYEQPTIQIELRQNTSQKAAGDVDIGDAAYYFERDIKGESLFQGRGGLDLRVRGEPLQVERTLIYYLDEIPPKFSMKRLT
As to the kind of experiment: BLI (Gator Prime), LEM supernatant Ab on HFC probe. An outline of the steps: as §2

The target in experiment [4] is T1, human Trop-2 expressed on cell surface. As to the kind of experiment: flow cytometry, MDA-MB-231-GFP cells. On the procedure:
as §1

Experiment [5] shares this target. As to the kind of experiment: cell-based or functional assay.
For experiment [6] the target is unchanged. As to the kind of experiment: cell-based or functional assay. The source holds these as a separate data set.
The target of experiment [7] is T2, cynomolgus Trop-2-His protein. As to the kind of experiment: ELISA, coated Trop-2 protein. Here is the method:
(§3) Purified antibodies were tested by ELISA to confirm their binding and affinity against human and cynomolgus Trop-2-His protein. Briefly, 96-well Maxisorp plates (Nunc) were coated with 100 μl/well of 0.5 μg/ml human (Kactus Cat #TRP-HM121, or Sino Biological, Cat #10428-HO8H) or cynomolgus Trop-2 protein (Kactus Cat #TRP-CM121, or Sino Biological, Cat #90893-CO8H) diluted in 1×PBS (GIBCO) overnight at 4° C. Plates were washed four times with 300 μl/well washing buffer (1×PBST, diluted from 20×PBST (Thermo Scientific) with distilled water)) and then blocked with 300 μl/well of blocking buffer (1×PBST/3% BSA (BSA, Sigma)) for 2 hours at RT on plate shaker at 100 rpm. Plates were washed and added with 100 μl/well of testing antibodies, which were serial diluted with assay buffer (PBST/1% BSA). The antibodies were incubated at room temperature for 2 hours on plate shaker at 100 rpm. Plates were washed. One hundred microliters (100 μl) of 1:10,000 diluted horseradish peroxidase (HRP) conjugated anti-hIgG antibody (Jackson Immuno Research) was added into each well and incubated at room temperature for 1 hour on plate shaker at 100 rpm. Plates were washed and added with 100 μl/well TMB substrate for color development in dark at room temperature for up to 10 minutes. After addition of 50 μl/well of stop solution (1N H₂SO₄), plates were read at 450 nm on a plate reader (SpectraMax M5). EC₅₀ values were calculated using Graphpad Prism. Sacituzumab govitecan, was used as positive control. Anti-HEL.hIgG1 was used as isotype control.
For orientation: ELISA stands for enzyme-linked immunosorbent assay.

Experiment [8] addresses T3, human Trop-2-His protein. As to the kind of experiment: ELISA, coated Trop-2 protein. Here is the method: as §3

The EC50 is the concentration giving half of the maximal effect. A word on the Kd: it is the concentration at which binding is half-saturated. Higher therefore signals lower affinity. One may read the koff as the first-order rate constant of dissociation. A lower koff goes with slow dissociation. As a reminder, the kon is the second-order rate constant of association. Read a high kon as fast association.

B1: 9F7 (antibody, V domains shown)
VH: QEQLKESGGGLVQPGGSLTLSCKASGFDFNNYGVSWVRQAPGKGLEWIGYIYPAYHNTYYATWVNGRFTISSHNAQNTLYLQLNTLTAADTATYFCARDTGSTDYNFNLWGPGTLVTVSS
VL: DVVMTQTPASVEVAVGGTVTIKCQASEDIESYLAWYQQKPGQPPKLLIYEASKLASGVSSRFSGGGYGTEFTLTISGVECADAATYYCQQALTVGNVDNPFGGGSEVVVK
notes: Rabbit-derived clone; LEM construct: VH + rabbit IgG CH1 + human IgG1 CH2-CH3
Consider B1, for which the midpoint of the response in experiment [1], the EC50, lay at 0.3 nM. Further, in experiment [2], the Kd was determined as 0.145 nM, the koff was approximately 0.000112 s⁻¹ and the kon came out at 774000 M⁻¹ s⁻¹. Also, in the experiment with human Trop-2-His protein [3], the Kd was found to be 0.11 nM, the koff was 5.8e-05 s⁻¹ and the kon amounted to 530000 M⁻¹ s⁻¹. Besides, in experiment [4], the EC50 worked out at 0.03 nM. In addition, in experiment [5], the “EC50 of ADCC (NFAT-CD16 reporter), MCF-7” value is 0.18 nM and the “EC50 of ADCC (NFAT-CD16 reporter), MDA-MB-231” value (“EC50 of ADCC … MDA-MB-231” for short) worked out at 0.03 nM. In experiment [6], the “Internalization %, MDA-MB-231, 0.25 µg/ml, 2 h” value amounted to 34%; the “Internalization %, MDA-MB-231, 0.25 µg/ml, 4 h” value was 38%; the “Internalization %, MDA-MB-231, 0.5 µg/ml, 2 h” value is 34%; the “Internalization %, MDA-MB-231, 0.5 µg/ml, 4 h” value is 46%. In addition, in experiment [6], the “Internalization %, MDA-MB-231, 1 µg/ml, 2 h” value came to 33%; the “Internalization %, MDA-MB-231, 1 µg/ml, 4 h” value turned out to be 41%; the “Internalization %, MDA-MB-231, 2 µg/ml, 2 h” value is 28%; the “Internalization %, MDA-MB-231, 2 µg/ml, 4 h” value was 31%. The same molecule showed an EC50 in experiment [7] of 0.03 nM. In addition, in the experiment with human Trop-2-His protein [8], the response was half-maximal at 0.033 nM (EC50).

B2: 72F12 (antibody, V domains shown)
VH: QEQLKESGGGLVQPGGSLKLSCKASGFDFNNYGVSWVRQAPGKGLEWIAYIYPAFHNTYYATWVNGRFTISSHNAQNTLYLQLNSLTAADTATYFCARDAGSVDYNFNLWGPGTLVTVSS
VL: DVVMTQTPASVEVAVGGTVTIKCQASKNIDSNLAWYQQKPGQPPKQLIYAASTLASGVSSRFSGSGYGAEFTLTISGVECADAATYYCQQALTIGNVDNPFGGGSEVVVK
notes: as for B1
B2: in experiment [1], the EC50 came out at 0.7 nM. In experiment [2], this molecule returned a Kd of 0.526 nM, a koff of 0.00047 s⁻¹ and a kon of 898000 M⁻¹ s⁻¹. In the experiment with human Trop-2-His protein [3], this molecule came in with a Kd of 0.574 nM, a koff of 0.00038 s⁻¹ and a kon of 666000 M⁻¹ s⁻¹. This molecule also registered an EC50 in experiment [4] of 0.01 nM. In addition, in experiment [5], the “EC50 of ADCC (NFAT-CD16 reporter), MCF-7” value came to 0.16 nM and the “EC50 of ADCC … MDA-MB-231” value worked out at 0.07 nM. Moreover, in experiment [6], the “Internalization %, MDA-MB-231, 0.25 µg/ml, 2 h” value was 38%; the “Internalization %, MDA-MB-231, 0.25 µg/ml, 4 h” value came out at 48%; the “Internalization %, MDA-MB-231, 0.5 µg/ml, 2 h” value turned out to be 42%; the “Internalization %, MDA-MB-231, 0.5 µg/ml, 4 h” value was 48%. In experiment [6], the “Internalization %, MDA-MB-231, 1 µg/ml, 2 h” value came out at 35%; the “Internalization %, MDA-MB-231, 1 µg/ml, 4 h” value came out at 45%; the “Internalization %, MDA-MB-231, 2 µg/ml, 2 h” value was 37%; the “Internalization %, MDA-MB-231, 2 µg/ml, 4 h” value was determined as 45%. Also, a half-maximal effect in experiment [7] (EC50) was put at 0.013 nM. Also, it took 0.013 nM to reach a half-maximal effect with human Trop-2-His protein [8] (EC50).

B3: 62E3 (antibody, V domains shown)
VH: QEQLKESGGGLVQPGGSLKLSCKASGFDFNEYGVSWVRQAPGKGLEWIAYIYPAFHNTYYATWVNGRFTISSHNAQNTLYLQLNTLTAADTATYFCARDAGTTDYNFNLWGPGTLVTVSS
VL: DVVMTQTASPVSAAVGGTVTIKCQASEDIESYLAWYQQKPGQPPKLLIYEASKLASGVSSRFSGSGYGTEFTLTISGVECADAATYYCQQALTIGNVDNPFGGGSEVVVK
notes: as for B1
As for B3, the EC50 in experiment [1] was 0.7 nM. In experiment [2], this molecule displayed a Kd of 0.685 nM, an off-rate constant (koff) of 0.00045 s⁻¹ and a kon of 651000 M⁻¹ s⁻¹. In the experiment with human Trop-2-His protein [3], the Kd came to 0.623 nM, the koff amounted to 0.00038 s⁻¹ and the kon worked out at 607000 M⁻¹ s⁻¹. The molecule further had an EC50 in experiment [4] of 0.01 nM. Moreover, in experiment [5], the “EC50 of ADCC (NFAT-CD16 reporter), MCF-7” value amounted to 0.4 nM and the “EC50 of ADCC … MDA-MB-231” value came out at 0.04 nM. In addition, in experiment [6], the “Internalization %, MDA-MB-231, 0.25 µg/ml, 2 h” value was found to be 41%; the “Internalization %, MDA-MB-231, 0.25 µg/ml, 4 h” value amounted to 46%; the “Internalization %, MDA-MB-231, 0.5 µg/ml, 2 h” value was 42%; the “Internalization %, MDA-MB-231, 0.5 µg/ml, 4 h” value is 45%. For the same molecule, in experiment [6], the “Internalization %, MDA-MB-231, 1 µg/ml, 2 h” value was 43%; the “Internalization %, MDA-MB-231, 1 µg/ml, 4 h” value is 49%; the “Internalization %, MDA-MB-231, 2 µg/ml, 2 h” value is 43%; the “Internalization %, MDA-MB-231, 2 µg/ml, 4 h” value came to 48%. For the same molecule, in experiment [7], the EC50 was 0.016 nM. This molecule also showed an EC50 in the experiment with human Trop-2-His protein [8] of 0.018 nM.

For the origin of these results see patent US20250206841A1 (ADEPT THERAPEUTICS, published 2025).
